T1: Raf-1 (331-345) peptide
T1 chain: RPRGQRDSSFFWEIE


Tests used:
[1] = target: Raf-CR3 (wild type), recombinant Raf-1 catalytic fragment, calmodulin binding protein fusion, P04049
[2] = target: Raf-CR3[D338E339], P04049
[3] = target: Raf-CR3[A338A339], P04049
Raf-1 (331-345) peptide = target: T1, Raf-1 (331-345) peptide

Protein | phosphate incorporation into Raf-CR3 [1] | phosphate incorporation into Raf-CR3 [2] | phosphate incorporation into Raf-CR3 [3] | phosphorylation of Raf-CR3 [1] | phosphorylation of the Raf-1 peptide (Raf-1 (331-345) peptide)
full-length PAK3 from rat spleen lysate (protein) SDNGELEDKPPAPPVRMSSTIFSTGGKDPLSANHSLKPLPSVPEEKKPRNKIISIFSSTEKGSKKKEKERPEISPPSDFEHTIHVGFDAVTGEFTGMPEQWARLLQTSNITKLEQKKNPQAVLDVLKFYDSNTVKQKYLSFTPPEKDGFPSGTPALNTKGSETSAVVTEEDDDDEDAAPPVIAPRPDHTKSIYTRSVIDPIPAPVGDSNVDSGAKSSDKQKKKAKMTDEEIMEKLRTIVSIGDPKKKYTRYEKIGQGASGTVFTATDVALGQEVAIKQINLQKQPKKELIINEILVMKELKNPNIVNFLDSYLVGDELFVVMEYLAGGSLTDVVTETCMDEAQIAAVCRECLQALEFLHANQVIHRDIKSDNVLLGMEGSVKLTDFGFCAQITPEQSKRSTMVGTPYWMAPEVVTRKAYGPKVDIWSLGIMAIEMVEGEPPYLNENPLRALYLIATNGTPELQNPEKLSPIFRDFLNRCLEMDVEKRGSAKELLQHPFLKLAKPLSSLTPLILAAKEAMKSNR | 4-fold more phosphate into wild type Raf-CR3 than into the non-phosphorylatable Raf-CR3[D338E339] or Raf-CR3[A338A339] site mutants | reduced ability of immunoprecipitated PAK3 to phosphorylate the Raf-CR3[A338,A339] or Raf-CR3[D338,E339] mutant proteins | reduced ability of immunoprecipitated PAK3 to phosphorylate the Raf-CR3[A338,A339] or Raf-CR3[D338,E339] mutant proteins | – | –
recombinant His-tagged mouse PAK3 from Sf9 cells (protein) MSDSLDNEEKPPAPPLRMNSNNRDSSALNHSSKPLPMAPEEKNKKARLRSIFPGGGDKTNKKKEKERPEISLPSDFEHTIHVGFDAVTGEFTGIPEQWARLLQTSNITKLEQKKNPQAVLDVLKFYDSKETVNNQKYMSFTSGDKSAHGYIAAHQSNTKTASEPPLAPPVSEEEDEEEEEEEDDNEPPPVIAPRPEHTKSIYTRSVVESIASPAAPNKEDIPPSAENANSTTLYRNTDRQRKKSKMTDEEILEKLRSIVSVGDPKKKYTRFEKIGQGASGTVYTALDIATGQEVAIKQMNLQQQPKKELIINEILVMRENKNPNIVNYLDSYLVGDELWVVMEYLAGGSLTDVVTETCMDEGQIAAVCRECLQALDFLHSNQVIHRDIKSDNILLGMDGSVKLTDFGFCAQITPEQSKRSTMVGTPYWMAPEVVTRKAYGPKVDIWSLGIMAIEMVEGEPPYLNENPLRALYLIATNGTPELQNPERLSAVFRDFLNRCLEMDVDRRGSAKELLQHPFLKLAKPLSSLTPLIIAAKEAIKNSSR | – | – | – | strongly phosphorylated wild type Raf-CR3 | Recombinant His-tagged mouse PAK3 from Sf9 cells phosphorylated the Raf-1 peptide

— patent publication US6383734
